Molecular target: NK1 receptor (human) (UniProt P25103)
Test: cell-based or functional assay

Sequence of NK1 receptor (human) (P25103 87-407): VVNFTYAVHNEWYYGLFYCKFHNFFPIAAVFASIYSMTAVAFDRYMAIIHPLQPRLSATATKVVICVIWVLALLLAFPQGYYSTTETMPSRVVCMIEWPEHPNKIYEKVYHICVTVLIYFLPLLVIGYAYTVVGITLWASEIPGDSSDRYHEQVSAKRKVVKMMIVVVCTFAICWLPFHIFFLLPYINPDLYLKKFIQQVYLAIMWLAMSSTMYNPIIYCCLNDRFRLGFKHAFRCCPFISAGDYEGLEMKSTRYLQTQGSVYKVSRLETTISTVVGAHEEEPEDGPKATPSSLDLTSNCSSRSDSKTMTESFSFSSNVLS

Percentage of inhibition of cell cultures; Breast carcinoma (ductal adenocarcinoma); cases with amplification of the gene that encodes for the NK1 receptor: 96% | Percentage of inhibition of cell cultures; Breast carcinoma (ductal adenocarcinoma); cases without amplification of the gene that encodes for the NK1 receptor: 26% | Percentage of inhibition of cell cultures; Breast carcinoma (ductal adenocarcinoma); high expression of the truncated form of NK1 receptor (Group B): 94% | Percentage of inhibition of cell cultures; Breast carcinoma (ductal adenocarcinoma); low expression of the truncated form of NK1 receptor (Group A): 24% | Percentage of inhibition of cell cultures; Burkitt Lymphoma; cases with amplification of the gene that encodes for the NK1 receptor: 96% | Percentage of inhibition of cell cultures; Burkitt Lymphoma; cases without amplification of the gene that encodes for the NK1 receptor: 25% | Percentage of inhibition of cell cultures; Burkitt Lymphoma; high expression of the truncated form of NK1 receptor (Group B): 96% | Percentage of inhibition of cell cultures; Burkitt Lymphoma; low expression of the truncated form of NK1 receptor (Group A): 26% | Percentage of inhibition of cell cultures; Carcinoma of the uterine cervix (Squamous cell carcinoma); cases with amplification of the gene that encodes for the NK1 receptor: 94% | Percentage of inhibition of cell cultures; Carcinoma of the uterine cervix (Squamous cell carcinoma); cases without amplification of the gene that encodes for the NK1 receptor: 27% | Percentage of inhibition of cell cultures; Carcinoma of the uterine cervix (Squamous cell carcinoma); high expression of the truncated form of NK1 receptor (Group B): 95% | Percentage of inhibition of cell cultures; Carcinoma of the uterine cervix (Squamous cell carcinoma); low expression of the truncated form of NK1 receptor (Group A): 24% | Percentage of inhibition of cell cultures; Colon carcinoma (Adenocarcinoma); cases with amplification of the gene that encodes for the NK1 receptor: 96% | Percentage of inhibition of cell cultures; Colon carcinoma (Adenocarcinoma); cases without amplification of the gene that encodes for the NK1 receptor: 24% | Percentage of inhibition of cell cultures; Colon carcinoma (Adenocarcinoma); high expression of the truncated form of NK1 receptor (Group B): 94% | Percentage of inhibition of cell cultures; Colon carcinoma (Adenocarcinoma); low expression of the truncated form of NK1 receptor (Group A): 24% | Percentage of inhibition of cell cultures; Endometrium carcinoma; cases with amplification of the gene that encodes for the NK1 receptor: 96% | Percentage of inhibition of cell cultures; Endometrium carcinoma; cases without amplification of the gene that encodes for the NK1 receptor: 28% | Percentage of inhibition of cell cultures; Endometrium carcinoma; high expression of the truncated form of NK1 receptor (Group B): 94% | Percentage of inhibition of cell cultures; Endometrium carcinoma; low expression of the truncated form of NK1 receptor (Group A): 26% | Percentage of inhibition of cell cultures; Gastric carcinoma (Adenocarcinoma); cases with amplification of the gene that encodes for the NK1 receptor: 95% | Percentage of inhibition of cell cultures; Gastric carcinoma (Adenocarcinoma); cases without amplification of the gene that encodes for the NK1 receptor: 25% | Percentage of inhibition of cell cultures; Gastric carcinoma (Adenocarcinoma); high expression of the truncated form of NK1 receptor (Group B): 96% | Percentage of inhibition of cell cultures; Gastric carcinoma (Adenocarcinoma); low expression of the truncated form of NK1 receptor (Group A): 22% | Percentage of inhibition of cell cultures; Glioma (astrocytoma); cases with amplification of the gene that encodes for the NK1 receptor: 95% | Percentage of inhibition of cell cultures; Glioma (astrocytoma); cases without amplification of the gene that encodes for the NK1 receptor: 25% | Percentage of inhibition of cell cultures; Glioma (astrocytoma); high expression of the truncated form of NK1 receptor (Group B): 96% | Percentage of inhibition of cell cultures; Glioma (astrocytoma); low expression of the truncated form of NK1 receptor (Group A): 24% | Percentage of inhibition of cell cultures; Lung carcinoma (non small cell lung carcinoma); cases with amplification of the gene that encodes for the NK1 receptor: 97% | Percentage of inhibition of cell cultures; Lung carcinoma (non small cell lung carcinoma); cases without amplification of the gene that encodes for the NK1 receptor: 25% | Percentage of inhibition of cell cultures; Lung carcinoma (non small cell lung carcinoma); high expression of the truncated form of NK1 receptor (Group B): 95% | Percentage of inhibition of cell cultures; Lung carcinoma (non small cell lung carcinoma); low expression of the truncated form of NK1 receptor (Group A): 26% | Percentage of inhibition of cell cultures; Lung carcinoma (small cell lung carcinoma); cases with amplification of the gene that encodes for the NK1 receptor: 95% | Percentage of inhibition of cell cultures; Lung carcinoma (small cell lung carcinoma); cases without amplification of the gene that encodes for the NK1 receptor: 26% | Percentage of inhibition of cell cultures; Lung carcinoma (small cell lung carcinoma); high expression of the truncated form of NK1 receptor (Group B): 96% | Percentage of inhibition of cell cultures; Lung carcinoma (small cell lung carcinoma); low expression of the truncated form of NK1 receptor (Group A): 25% | Percentage of inhibition of cell cultures; Melanoma (Nodular Melanoma); cases with amplification of the gene that encodes for the NK1 receptor: 97% | Percentage of inhibition of cell cultures; Melanoma (Nodular Melanoma); cases without amplification of the gene that encodes for the NK1 receptor: 26% | Percentage of inhibition of cell cultures; Melanoma (Nodular Melanoma); high expression of the truncated form of NK1 receptor (Group B): 96% | Percentage of inhibition of cell cultures; Melanoma (Nodular Melanoma); low expression of the truncated form of NK1 receptor (Group A): 26% | Percentage of inhibition of cell cultures; Non Hodgkin Lymphoma B (diffuse B cell lymphoma); cases with amplification of the gene that encodes for the NK1 receptor: 94% | Percentage of inhibition of cell cultures; Non Hodgkin Lymphoma B (diffuse B cell lymphoma); cases without amplification of the gene that encodes for the NK1 receptor: 26% | Percentage of inhibition of cell cultures; Non Hodgkin Lymphoma B (diffuse B cell lymphoma); high expression of the truncated form of NK1 receptor (Group B): 95% | Percentage of inhibition of cell cultures; Non Hodgkin Lymphoma B (diffuse B cell lymphoma); low expression of the truncated form of NK1 receptor (Group A): 24% | Percentage of inhibition of cell cultures; Non Hodgkin Lymphoma T (diffuse T cell lymphoma); cases with amplification of the gene that encodes for the NK1 receptor: 95% | Percentage of inhibition of cell cultures; Non Hodgkin Lymphoma T (diffuse T cell lymphoma); cases without amplification of the gene that encodes for the NK1 receptor: 24% | Percentage of inhibition of cell cultures; Non Hodgkin Lymphoma T (diffuse T cell lymphoma); high expression of the truncated form of NK1 receptor (Group B): 95% | Percentage of inhibition of cell cultures; Non Hodgkin Lymphoma T (diffuse T cell lymphoma); low expression of the truncated form of NK1 receptor (Group A): 25% | Percentage of inhibition of cell cultures; Ovarian carcinoma (Adenocarcinoma); cases with amplification of the gene that encodes for the NK1 receptor: 95% | Percentage of inhibition of cell cultures; Ovarian carcinoma (Adenocarcinoma); cases without amplification of the gene that encodes for the NK1 receptor: 24% | Percentage of inhibition of cell cultures; Ovarian carcinoma (Adenocarcinoma); high expression of the truncated form of NK1 receptor (Group B): 95% | Percentage of inhibition of cell cultures; Ovarian carcinoma (Adenocarcinoma); low expression of the truncated form of NK1 receptor (Group A): 25% | Percentage of inhibition of cell cultures; Pancreatic carcinoma (Adenocarcinoma); cases with amplification of the gene that encodes for the NK1 receptor: 96% | Percentage of inhibition of cell cultures; Pancreatic carcinoma (Adenocarcinoma); cases without amplification of the gene that encodes for the NK1 receptor: 25% | Percentage of inhibition of cell cultures; Pancreatic carcinoma (Adenocarcinoma); high expression of the truncated form of NK1 receptor (Group B): 95% | Percentage of inhibition of cell cultures; Pancreatic carcinoma (Adenocarcinoma); low expression of the truncated form of NK1 receptor (Group A): 23% | Percentage of inhibition of cell cultures; Prostate carcinoma; cases with amplification of the gene that encodes for the NK1 receptor: 95% | Percentage of inhibition of cell cultures; Prostate carcinoma; cases without amplification of the gene that encodes for the NK1 receptor: 25% | Percentage of inhibition of cell cultures; Prostate carcinoma; high expression of the truncated form of NK1 receptor (Group B): 95% | Percentage of inhibition of cell cultures; Prostate carcinoma; low expression of the truncated form of NK1 receptor (Group A): 27% | Percentage of inhibition of cell cultures; Renal cell carcinoma (clear cell renal cell carcinoma); cases with amplification of the gene that encodes for the NK1 receptor: 97% | Percentage of inhibition of cell cultures; Renal cell carcinoma (clear cell renal cell carcinoma); cases without amplification of the gene that encodes for the NK1 receptor: 27% | Percentage of inhibition of cell cultures; Renal cell carcinoma (clear cell renal cell carcinoma); high expression of the truncated form of NK1 receptor (Group B): 93% | Percentage of inhibition of cell cultures; Renal cell carcinoma (clear cell renal cell carcinoma); low expression of the truncated form of NK1 receptor (Group A): 24% | Percentage of inhibition of cell cultures; Thyroid carcinoma (follicular carcinoma); cases with amplification of the gene that encodes for the NK1 receptor: 95% | Percentage of inhibition of cell cultures; Thyroid carcinoma (follicular carcinoma); cases without amplification of the gene that encodes for the NK1 receptor: 26% | Percentage of inhibition of cell cultures; Thyroid carcinoma (follicular carcinoma); high expression of the truncated form of NK1 receptor (Group B): 94% | Percentage of inhibition of cell cultures; Thyroid carcinoma (follicular carcinoma); low expression of the truncated form of NK1 receptor (Group A): 24% | Percentage of inhibition of cell cultures; Thyroid carcinoma (papillary carcinoma); cases with amplification of the gene that encodes for the NK1 receptor: 96% | Percentage of inhibition of cell cultures; Thyroid carcinoma (papillary carcinoma); cases without amplification of the gene that encodes for the NK1 receptor: 27% | Percentage of inhibition of cell cultures; Thyroid carcinoma (papillary carcinoma); high expression of the truncated form of NK1 receptor (Group B): 95% | Percentage of inhibition of cell cultures; Thyroid carcinoma (papillary carcinoma); low expression of the truncated form of NK1 receptor (Group A): 25% | Percentage of inhibition of cell cultures; Undifferentiated Pleomorphic Sarcoma (malignant fibrous histiocytoma grade 3); cases with amplification of the gene that encodes for the NK1 receptor: 96% | Percentage of inhibition of cell cultures; Undifferentiated Pleomorphic Sarcoma (malignant fibrous histiocytoma grade 3); cases without amplification of the gene that encodes for the NK1 receptor: 25% | Percentage of inhibition of cell cultures; Undifferentiated Pleomorphic Sarcoma (malignant fibrous histiocytoma grade 3); high expression of the truncated form of NK1 receptor (Group B): 95% | Percentage of inhibition of cell cultures; Undifferentiated Pleomorphic Sarcoma (malignant fibrous histiocytoma grade 3); low expression of the truncated form of NK1 receptor (Group A): 25% | Percentage of inhibition of cell cultures; Urinary bladder carcinoma (transitional cell carcinoma); cases with amplification of the gene that encodes for the NK1 receptor: 94% | Percentage of inhibition of cell cultures; Urinary bladder carcinoma (transitional cell carcinoma); cases without amplification of the gene that encodes for the NK1 receptor: 24% | Percentage of inhibition of cell cultures; Urinary bladder carcinoma (transitional cell carcinoma); high expression of the truncated form of NK1 receptor (Group B): 96% | Percentage of inhibition of cell cultures; Urinary bladder carcinoma (transitional cell carcinoma); low expression of the truncated form of NK1 receptor (Group A): 26%
Substance: anti-NK1 antibody (S8305, Sigma-Aldrich)

Reference: patent publication EP2966448B1, “METHOD FOR THE PREDICTION OR PROGNOSIS OF THE RESPONSE OF A HUMAN SUBJECT SUFFERING FROM CANCER TO TREATMENT WITH AN ANTAGONIST OF THE NK1 RECEPTOR” (priority 2013, dated 2014)
